According to patent US10064928B2, “Peptides and combination of peptides for use in immunotherapy against CLL and other cancers” (IMMATICS BIOTECHNOLOGIES GMBH, priority 2015, dated 2018):

Target: HLA-A*02:01 (Homo sapiens, UniProt P04439, D140Y/D185E/D98H/E176V/E277Q/G131W/G231S/I119V/I121R/I166T/I218V/L300P/L318F/N151K/N90K/P208A/P217A/Q86G/Q94H/R138H/R169H/T345S)
Experiment: MHC binding assay (UV-ligand exchange, beta2m ELISA)
Details: binding of HLA-class I restricted peptides to HLA-A*02:01, β2m ELISA
Description: Candidate peptides for T cell based therapies according to the present invention were further tested for their MHC binding capacity (affinity). The individual peptide-MHC complexes were produced by UV-ligand exchange, where a UV-sensitive peptide is cleaved upon UV-irradiation, and exchanged with the peptide of interest as analyzed. Only peptide candidates that can effectively bind and stabilize the peptide-receptive MHC molecules prevent dissociation of the MHC complexes. To determine the yield of the exchange reaction, an ELISA was performed based on the detection of the light chain (β2m) of stabilized MHC complexes. The assay was performed as generally described in Rodenko et al. (Rodenko et al., 2006).
96 well MAXISorp plates (NUNC) were coated over night with 2 ug/ml streptavidin in PBS at room temperature, washed 4× and blocked for 1 h at 37° C. in 2% BSA containing blocking buffer. Refolded HLA-A*02:01/MLA-001 monomers served as standards, covering the range of 15-500 ng/ml. Peptide-MHC monomers of the UV-exchange reaction were diluted 100 fold in blocking buffer. Samples were incubated for 1 h at 37° C., washed four times, incubated with 2 ug/ml HRP conjugated anti-β2m for 1 h at 37° C., washed again and detected with TMB solution that is stopped with […]. Absorption was measured at 450 nm. Candidate peptides that show a high exchange yield (preferably higher than 50%, most preferred higher than 75%) are generally preferred for a generation and production of antibodies or fragments thereof, and/or T cell receptors or fragments thereof, as they show sufficient avidity to the MHC molecules and prevent dissociation of the MHC complexes.

Peptide Exchange (MHC class I binding score, peptide exchange yield)	Substance
“+++” (≥50 = +++)	193 (YLDLSNNRL; listed as Homo sapiens) [compound 193]
“+++” (≥50 = +++)	372 (SLFGPLPGPGPALV; listed as Homo sapiens) [compound 372]
“++” (≥20% = ++)	277 (VMILKLPFL; listed as Homo sapiens) [compound 277]
“+++” (≥50 = +++)	283 (ILQPMDIHV; listed as Homo sapiens) [compound 283]
“++” (≥20% = ++)	284 (LLSAAEPVPA; listed as Homo sapiens) [compound 284]
“+++” (≥50 = +++)	133 (YLLSGDISEA; listed as Homo sapiens) [compound 133]
“++” (≥20% = ++)	353 (ATPMPTPSV; listed as Homo sapiens) [compound 353]
“+++” (≥50 = +++)	22 (ALWDPVIEL; listed as Homo sapiens) [compound 22]
“++” (≥20% = ++)	162 (SMKDDLENV; listed as Homo sapiens) [compound 162]
“+++” (≥50 = +++)	18 (LLGEFSIKM; listed as Homo sapiens) [compound 18]
“++++” (≥75% = ++++)	186 (VMDPTKILI; listed as Homo sapiens) [compound 186]
“+++” (≥50 = +++)	99 (ILIFHSVAL; listed as Homo sapiens) [compound 99]
“+++” (≥50 = +++)	137 (NLIKTVIKL; listed as Homo sapiens) [compound 137]
“++” (≥20% = ++)	97 (LLFATQITL; listed as Homo sapiens) [compound 97]
“+++” (≥50 = +++)	164 (SVHKGFAFV; listed as Homo sapiens) [compound 164]
“+++” (≥50 = +++)	132 (LVYEAIIMV; listed as Homo sapiens) [compound 132]
“+++” (≥50 = +++)	363 (ITTEVVNELYV; listed as Homo sapiens) [compound 363]
“++” (≥20% = ++)	188 (VMGDIPAAV; listed as Homo sapiens) [compound 188]
“+++” (≥50 = +++)	73 (GLLEVISALQL; listed as Homo sapiens) [compound 73]
“++” (≥20% = ++)	105 (KLMNDIADI; listed as Homo sapiens) [compound 105]
“+” (≥10% = +)	196 (YLLLQTYVL; listed as Homo sapiens) [compound 196]
“+++” (≥50 = +++)	4 (VIAELPPKVSV; listed as Homo sapiens) [compound 4]
“+++” (≥50 = +++)	14 (ALLRLLPGL; listed as Homo sapiens) [compound 14]
“++” (≥20% = ++)	47 (FLSDQPEPYL; listed as Homo sapiens) [compound 47]
“+++” (≥50 = +++)	39 (FLDALLTDV; listed as Homo sapiens) [compound 39]
“++” (≥20% = ++)	75 (GLSIFAQDLRL; listed as Homo sapiens) [compound 75]

Continued, substance first:

Substance	Peptide Exchange (MHC class I binding score, peptide exchange yield)
38 (FIMEGGAMV; listed as Homo sapiens) [compound 38]	“+++” (≥50 = +++)
93 (ILFNTQINI; listed as Homo sapiens) [compound 93]	“+++” (≥50 = +++)
52 (FLVETGFLHV; listed as Homo sapiens) [compound 52]	“++++” (≥75% = ++++)
268 (TLLQVFHLL; listed as Homo sapiens) [compound 268]	“+++” (≥50 = +++)
337 (YMYEKESEL; listed as Homo sapiens) [compound 337]	“++” (≥20% = ++)
252 (NLLDPGSSYLL; listed as Homo sapiens) [compound 252]	“+++” (≥50 = +++)
267 (TLLDWQDSL; listed as Homo sapiens) [compound 267]	“+++” (≥50 = +++)
233 (GIIDINVRL; listed as Homo sapiens) [compound 233]	“++” (≥20% = ++)
309 (ILYGTQFVL; listed as Homo sapiens) [compound 309]	“+++” (≥50 = +++)
295 (ALLQKLQQL; listed as Homo sapiens) [compound 295]	“+++” (≥50 = +++)
7 (ALLERTGYTL; listed as Homo sapiens) [compound 7]	“+++” (≥50 = +++)
103 (KLGGTPAPA; listed as Homo sapiens) [compound 103]	“++” (≥20% = ++)
13 (VVDGMPPGV; listed as Homo sapiens) [compound 13]	“+++” (≥50 = +++)
224 (AMEALVVEV; listed as Homo sapiens) [compound 224]	“+++” (≥50 = +++)
321 (RLLEFELAQL; listed as Homo sapiens) [compound 321]	“+++” (≥50 = +++)
60 (FVLDHEDGLNL; listed as Homo sapiens) [compound 60]	“+++” (≥50 = +++)
110 (LLFDHLEPMEL; listed as Homo sapiens) [compound 110]	“+++” (≥50 = +++)
145 (SALDTITTV; listed as Homo sapiens) [compound 145]	“+++” (≥50 = +++)
312 (LLYNSTDPTL; listed as Homo sapiens) [compound 312]	“+++” (≥50 = +++)
209 (ILQAELPSL; listed as Homo sapiens) [compound 209]	“+++” (≥50 = +++)
238 (GLVETELQL; listed as Homo sapiens) [compound 238]	“+++” (≥50 = +++)
215 (VMQDIVYKL; listed as Homo sapiens) [compound 215]	“+++” (≥50 = +++)
116 (LLIGATMQV; listed as Homo sapiens) [compound 116]	“+++” (≥50 = +++)
190 (VVMGTVPRL; listed as Homo sapiens) [compound 190]	“+++” (≥50 = +++)
211 (LIDVKPLGV; listed as Homo sapiens) [compound 211]	“+++” (≥50 = +++)
184 (VLSHNLYTV; listed as Homo sapiens) [compound 184]	“+++” (≥50 = +++)
270 (TVLPVPPLSV; listed as Homo sapiens) [compound 270]	“+++” (≥50 = +++)
61 (FVYFIVREV; listed as Homo sapiens) [compound 61]	“+++” (≥50 = +++)
108 (VIYTLIHYI; listed as Homo sapiens) [compound 108]	“+++” (≥50 = +++)
85 (HLMLHTAAL; listed as Homo sapiens) [compound 85]	“++++” (≥75% = ++++)
